Patent publication US20040223966A1 (Pfizer, published 2004)

Target: T1, ActRIIB-Fc (human)
T1 construct: The leader is stated as aa 1-21; also called ActRIIB fusion polypeptide; recombinant ActRIIB-Fc
Assay: ELISA: ActRIIB-Fc coated at 1 ug/ml, biotinylated ligand titrated, SA-HRP detection
Description: Biotinylated mature BMP-11 was prepared from BMP-11 latent complex in the same manner as described above. Recombinant ActRIIB-Fc, prepared as described in Examples 3 and 4, was coated on 96-well flat-bottom assay plates (Costar, NY, Cat. No. 3590) at 1 μg/ml in 0.2 M sodium carbonate buffer (pH 10) overnight at 4° C. Plates were then blocked with 1 mg/ml bovine serum albumin and washed following standard ELISA protocol. 100 μl aliquots of biotinylated GDF-8 or BMP-11 at various concentrations were added to the blocked ELISA plate, incubated for 1 hr and washed. The amount of bound GDF-8 or BMP-11 was detected by Streptavidin-Horseradish peroxidase (SA-HRP, BD PharMingen, San Diego, Calif., Cat. No. 13047E) followed by the addition of TMB (KPL, Gaithersburg, Md., Cat. No. 50-76-04). Colorimetric measurements were done at […] in a Molecular Devices microplate reader.

T1 sequence (chain, as listed by the source): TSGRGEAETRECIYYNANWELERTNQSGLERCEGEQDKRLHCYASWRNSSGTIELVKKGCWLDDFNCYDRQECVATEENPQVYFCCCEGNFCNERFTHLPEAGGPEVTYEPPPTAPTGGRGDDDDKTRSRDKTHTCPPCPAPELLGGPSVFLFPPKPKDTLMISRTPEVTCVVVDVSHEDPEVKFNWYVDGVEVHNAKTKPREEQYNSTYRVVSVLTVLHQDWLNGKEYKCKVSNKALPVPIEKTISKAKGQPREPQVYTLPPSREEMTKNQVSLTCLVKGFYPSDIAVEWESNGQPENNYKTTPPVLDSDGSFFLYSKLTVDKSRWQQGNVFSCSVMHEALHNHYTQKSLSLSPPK

EC50: 0.04 mg/L
B1: biotinylated mature BMP-11 (ligand, human, UniProt O95390 299-407, looked up)
chain: NLGLDCDEHSSESRCCRYPLTVDFEAFGWDWIIAPKRYKANYCSGQCEYMFMQKYPHTHLVQQANPRGSAGPCCTPTKMSPINMLYFNDKQQIIYGKIPGMVVDRCGCS
modifications: biotinylated with EZ-link Sulfo-NHS-Biotin, in the same manner as GDF-8; sites not stated
notes: mature; Active mature BMP-11 dimer purified from a cell line expressing recombinant human BMP-11; also called biotinylated BMP-11; GDF-11
